Experimental data published in patent publication US20080220446A1, “Method for Detecting and/or Removing Protein and/or Peptide Comprising a Cross-Beta Structure From an Aqueous Solution Comprising a Protein” (priority 2005, published 2008).
One block for each molecule: values may come before it.

How the values were obtained:
[1] = ThT fluorescence enhancement by biopharmaceuticals; type: physicochemical; details: after alkylation of cysteine residues
Method: (§1) Fluorescence of ThT—protein/peptide adducts was measured as follows. […] Fluorescence was measured at 485 nm upon excitation at 435 nm. Background signals from buffer, buffer with ThT and protein/peptide solution without ThT were subtracted from corresponding measurements with protein solution incubated with ThT. Regularly, fluorescence of Aβ was used as a positive control, and fluorescence of FP10, a non-amyloid fibrin fragment^16, was used as a negative control. Fluorescence was measured in triplicate on a Hitachi F-4500 fluorescence spectrophotometer (Ltd., Tokyo, Japan).
β2-GPI was reduced and alkylated as follows. Sixhundredforty μl of β2-GPI stock was mixed with 640 μl of 8 M Urea (cooled solution) in 0.1 M Tris pH-8.2. […]
(§2) Protein therapeutics were obtained from the local hospital pharmacy and analyzed within the expiry limits as stated by the manufacturers.
Fluorescence of Thioflavin T (ThT; Sigma T-3516, St. Louis, Mo., USA) and Congo red (CR; Aldrich Chemical Company Inc., Milwaukee, Wis., USA) was measured on a Hitachi F-4500 spectrophotometer at an excitation wavelength of 435 nm and emission wavelength of 485 nm for ThT and an excitation wavelength of 550 nm and emission wavelength of 595 nm for Congo red. […] Fluorescence was measured in triplicate. Background fluorescence of both protein in buffer and dye-solution were subtracted from the total fluorescence signal. […]

[2] = target: tPA (Homo sapiens, UniProt P00750); assay: tPA/plasminogen activation assay; type: biochemical; details: β2gpi exposed to cardiolipin or alkylated, 100 μg/ml
Method: β2-GPI was reduced and alkylated as follows. Sixhundredforty μl of β2-GPI stock was mixed with 640 μl of 8 M Urea (cooled solution) in 0.1 M Tris pH-8.2. The solution was degassed with N2 gas for approximately 6 minutes. From a 1 M DTT stock 12.8 μl was added to the solution, mixed and incubated for 3 hours at room temperature. A 1 M Iodoacetamide (Sigma; I-6125) was prepared, of which 25.6 μl was added to the β2-GPI reaction mixture. The solution was subsequently dialysed against PBS. […] Signals obtained with alkyl-β2gpi are compared with those obtained with native β2gpi starting material and with positive control acid/heat denatured amyloid-like misfolded γ-globulins.
Exiqon Peptide Immobilizer plates were blocked for 1 hour with PBS, 1% Tween20 and rinsed twice with distilled water. The conversion of the chromogenic substrate S-2251 (Chromogenix, Italy) by plasmin was kinetically measured at 37° C. on a Spectramax340 microplate reader at a wavelength of 405 nm. […] Denatured γ-globulins (100 μg/ml) with amyloid-like structure was used as reference and positive control. Lyophilized γ-globulins (Sigma, Mo., USA) were dissolved in a 1(:)1 volume ratio of 1,1,1,3,3,3-hexafluoro-2-propanol and trifluoro-acetic acid and subsequently dried under air. […]
as §2

[3] = target: T1, tPA F-EGF (Homo sapiens, UniProt P00750); assay: Affinity determination ELISA, tPA F-EGF on coated (mis)folded proteins; type: binding; details: coated protein as labelled, relative to native control
T1 construct: made in house; host or cells: HEK293E
T1 sequence (P00750 36-120 limits assumed): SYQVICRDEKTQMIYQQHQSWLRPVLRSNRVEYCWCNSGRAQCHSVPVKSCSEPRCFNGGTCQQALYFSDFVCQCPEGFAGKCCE
Source text: (§3) Synthetic genes of human BiP, human fibronectin finger 4,5 (Fn F4,5) fragment, and human tissue-type plasminogen activator finger EGF (tPA F-EGF) fragment were ordered from Geneart (Regensburg, Germany). These DNA constructs were digested using BamHI and NotI, and ligated into vector pABC674 (ABC-expression facility, Utrecht University, The Netherlands), which contains a carboxy-terminal FLAG-tag—His-tag. HEK293E cells were transiently transfected with these constructs using the polyethylene-imine method, and grown for 5-6 days.
(§4) Denatured proteins and their native controls BSA (Sigma, A7906), glycated BSA, Hb (Sigma, H7605), glycated Hb, ovalbumin (Sigma, A6741), heat-denatured misfolded ovalbumin, human γ-globulins (Sigma, G4386), heat-denatured misfolded γ-globulins, alkyl-γ-globulins, lysozyme (ICN Biochemicals, 100831) and alkyl-lysozyme were coated on ELISA plates (Greiner Microlon high-binding, 655092) in 50 mM NaHCO3-buffer pH 9.6. The plates were blocked using Blocking reagent (Roche 1112589). […] Bound protein is detected by the FLAG-tag using 1:3000 anti-FLAG-HRP (Sigma A-8592) in PBS-T, or by 1:1000 Ni-NTA-HRP (Qiagen 34530) in PBS-T. The HRP reaction Is performed using the TMB substrate (Biosource 4501103 or Tebu Bio 101TMB100-500), stopped using 10% H2SO4 and absorbance was measured at 450 nm.

[4] = target: T2, fibronectin F4,5 (Homo sapiens, UniProt P02751); assay: Affinity determination ELISA, fibronectin F4,5 on coated (mis)folded proteins; type: binding; details: coated protein as labelled
T2 construct: human fibronectin finger 4,5 (Fn F4,5) fragment; made in house; host or cells: HEK293E
Source text: as §3, §4

[5] = Thioflavin T fluorescence of protein solutions; type: physicochemical; details: conclusion from ThT fluorescence, Plg-activation assay and TEM
Method: as §1
Formulated protein therapeutics were obtained from the local hospital pharmacy and were used as supplied by the manufacturers. […] Lyophilized therapeutics were dissolved according to the manufacturers recommendations. GH, zinc-insulin, Cealb and gelatin were stored at −20, 4, room temperature, 37 and 65° C. Other protein therapeutics were only kept at 4° C., and assayed for the presence of cross-β structure at shown time points. Enhancement in fluorescence of ThT and Congo red was measured with all formulated protein therapeutics. […]
ThT fluorescence of β2GPI was measured as follows. […] In the ThT fluorescence assay, fluorescence of β2GPI in buffer, of CL or DXS500k in buffer, of buffer and ThT alone, and of β2GPI-CL adducts and β2GPI-DXS500k adducts, with or without ThT, was recorded as described above (section ThT fluorescence). In addition, TEM images were recorded with CL, β2GPI from human plasma, with or without CL, and with recombinant β2GPI, as described^5.
To prepare structurally altered ovalbumin (OVA) with amyloid cross-β structures, purified OVA (Sigma, A-7641, lot 071k7094) was heated to 85° C. […] Native OVA (nOVA) and heat-denatured OVA (dOVA) were tested in the ThT fluorescence assay and in the Plg-activation assay. In the fluorescence assay and in the Plg-activation assay, 25 and 100 μg ml^−1 nOVA and dOVA were tested, respectively. […]
MSA (#126674, Calbiochem) was dissolved in 8 M urea, 100 mM Tris-HCl pH 8.2, at 10 mg ml^−1 final concentration. […] The presence of aggregates or fibrils was analyzed using TEM. […]

Chain of tPA (P00750 36-562): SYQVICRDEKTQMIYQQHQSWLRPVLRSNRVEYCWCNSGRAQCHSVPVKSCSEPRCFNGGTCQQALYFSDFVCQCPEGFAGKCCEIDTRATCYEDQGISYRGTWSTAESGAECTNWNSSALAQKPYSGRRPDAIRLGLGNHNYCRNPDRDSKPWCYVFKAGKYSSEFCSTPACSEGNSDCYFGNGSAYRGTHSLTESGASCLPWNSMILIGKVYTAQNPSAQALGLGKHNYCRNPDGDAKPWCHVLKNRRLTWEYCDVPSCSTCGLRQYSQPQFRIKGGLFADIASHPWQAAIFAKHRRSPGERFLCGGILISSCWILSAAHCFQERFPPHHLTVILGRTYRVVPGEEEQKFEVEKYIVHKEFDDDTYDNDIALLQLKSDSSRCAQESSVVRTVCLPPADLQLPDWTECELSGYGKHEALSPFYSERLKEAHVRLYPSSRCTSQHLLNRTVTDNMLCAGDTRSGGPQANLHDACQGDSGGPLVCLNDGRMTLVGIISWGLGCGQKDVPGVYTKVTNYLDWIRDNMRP
T2 sequence (P02751 182-276 limits assumed): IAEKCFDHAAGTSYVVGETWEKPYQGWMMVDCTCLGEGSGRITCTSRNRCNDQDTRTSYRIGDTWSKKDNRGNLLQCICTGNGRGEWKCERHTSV

ability to activate tPA/plasminogen [2]: amyloid-like properties
B1: alkyl-β2gpi: reduced and alkylated β2-glycoprotein I (protein)
chain: GRTCPKPDDLPFSTVVPLKTFYEPGEEITYSCKPGYVSRGGMRKFICPLTGLWPINTLKCTPRVCPFAGILENGAVRYTTFEYPNTISFSCNTGFYLNGADSAKCTEEGKWSPELPVCAPIICPPPSIPTFATLRVYKPSAGNNSLYRDTAVFECLPQHAMFGNDTITCTTHGNWTKLPECREVKCPFPSRPDNGFVNYPAKPTLYYKDKATFGCHDGYSLDGPEEIECTKLGNWSAMPSCKASCKVPVKKATVVYQGERVKIQEKFKNGMLHGDKVSFFCKNKEKKCSYTEDAQCIDGTIEVPKCFKEHSSLAFWKTDASDVKPC
Thioflavin T fluorescence [1]: enhanced Thioflavin T fluorescence

binding of tPA F-EGF [3]: Much lower binding
affinity for fibronectin F4,5 [4]: clear difference in binding affinity
B2: heat-denatured OVA: ovalbumin heated to 85° C. (protein)
chain: GSIGAASMEFCFDVFKELKVHHANENIFYCPIAIMSALAMVYLGAKDSTRTQINKVVRFDKLPGFGDSIEAQCGTSVNVHSSLRDILNQITKPNDVYSFSLASRLYAEERYPILPEYLQCVKELYRGGLEPINFQTAADQARELINSWVESQTNGIIRNVLQPSSVDSQTAMVLVNAIVFKGLWEKAFKDEDTQAMPFRVTEQESKPVQMMYQIGLFRVASMASEKMKILELPFASGTMSMLVLLPDEVSGLEQLESIINFEKLTEWTSSNVMEERKIKVYLPRMKMEEKYNLTSVLMAMGITDVFSSSANLSGISSAESLKISQAVHAAHAEINEAGREVVGSAEAGVDAASVSEEFRADHPFLFCIKHIATNAVLFFGRCVSP
presence of cross-β structure conformation [5]: comprise the cross-β structure conformation
